Laboratory results taken from PMC2756588.

What was measured:
Assay in all cases: SPOT array
Abp1, P15891 = molecular target: T1, Abp1, P15891; conditions: median of control spots 935
T1 sequence (P15891 535-592, looked up): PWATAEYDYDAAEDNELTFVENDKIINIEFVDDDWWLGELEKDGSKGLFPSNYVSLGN

Lsb1, P53281 = molecular target: T2, Lsb1, P53281; conditions: median of control spots 388
T2 sequence (P53281 45-122, looked up): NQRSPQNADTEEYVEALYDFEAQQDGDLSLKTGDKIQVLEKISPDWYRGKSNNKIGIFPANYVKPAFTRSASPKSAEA

Rvs167, P39743 = conditions: median of control spots 2707
Fus1, P11710 = molecular target: T3, Fus1, P11710; conditions: median of control spots 1200
T3 sequence (P11710 432-512, looked up): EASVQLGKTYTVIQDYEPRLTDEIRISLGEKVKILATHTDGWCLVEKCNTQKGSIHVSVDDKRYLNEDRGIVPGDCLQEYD

Sla1-2, P32790 = molecular target: T4, Sla1-2, P32790; conditions: median of control spots 712
T4 sequence (P32790 60-140, looked up): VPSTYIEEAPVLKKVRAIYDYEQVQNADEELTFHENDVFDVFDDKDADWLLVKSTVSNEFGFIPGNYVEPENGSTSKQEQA

Hof1, Q05080 = molecular target: T5, Hof1, Q05080; conditions: median of control spots 4086
T5 sequence (Q05080 590-669, looked up): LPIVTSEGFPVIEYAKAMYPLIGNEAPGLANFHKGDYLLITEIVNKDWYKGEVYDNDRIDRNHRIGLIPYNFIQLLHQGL

Bzz1-1, P38822 = molecular target: T6, Bzz1-1, P38822; conditions: median of control spots 4446
T6 sequence (P38822 478-572, looked up): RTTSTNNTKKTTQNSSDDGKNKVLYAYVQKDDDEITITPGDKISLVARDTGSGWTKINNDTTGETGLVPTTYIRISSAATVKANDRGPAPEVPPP

Sho1, P40073 = conditions: median of control spots 1148
Sla1-3, P32790 = molecular target: T7, Sla1-3, P32790; conditions: median of control spots 5475
T7 sequence (P32790 344-424, looked up): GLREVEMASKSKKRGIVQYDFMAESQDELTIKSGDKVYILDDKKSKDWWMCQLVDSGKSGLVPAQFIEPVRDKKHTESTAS

Cyk3, Q07533 = molecular target: T8, Cyk3, Q07533; conditions: median of control spots 1451
T8 sequence (Q07533 1-83, looked up): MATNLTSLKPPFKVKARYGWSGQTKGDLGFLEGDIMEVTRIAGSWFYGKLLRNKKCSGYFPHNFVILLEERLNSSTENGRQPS

Boi1, P38041 = molecular target: T9, Boi1, P38041; conditions: median of control spots 1162
T9 sequence (P38041 1-86, looked up): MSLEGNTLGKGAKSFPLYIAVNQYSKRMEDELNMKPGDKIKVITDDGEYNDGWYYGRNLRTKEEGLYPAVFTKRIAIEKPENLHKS

Bzz1-2, P38822 = molecular target: T10, Bzz1-2, P38822; conditions: median of control spots 4538
T10 sequence (P38822 568-633, looked up): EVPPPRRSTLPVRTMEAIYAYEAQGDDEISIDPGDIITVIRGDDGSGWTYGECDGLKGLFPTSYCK

Bbc1, P47068 = molecular target: T11, Bbc1, P47068; conditions: median of control spots 796
T11 sequence (P47068 1-78, looked up): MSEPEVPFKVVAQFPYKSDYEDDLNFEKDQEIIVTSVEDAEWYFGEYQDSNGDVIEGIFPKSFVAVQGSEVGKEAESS

Boi2, P39969 = molecular target: T12, Boi2, P39969; conditions: median of control spots 1161
T12 sequence (P39969 32-116, looked up): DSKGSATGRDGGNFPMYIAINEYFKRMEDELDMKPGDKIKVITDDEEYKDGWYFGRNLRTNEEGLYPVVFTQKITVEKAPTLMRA

Myo5, Q04439 = molecular target: T13, Myo5, Q04439; conditions: median of control spots 471
T13 sequence (Q04439 1072-1160, looked up): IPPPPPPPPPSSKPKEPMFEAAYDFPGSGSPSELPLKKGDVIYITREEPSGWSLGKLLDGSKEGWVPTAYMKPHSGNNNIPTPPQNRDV

Lsb3, P43603 = molecular target: T14, Lsb3, P43603; conditions: median of control spots 406
T14 sequence (P43603 385-451, looked up): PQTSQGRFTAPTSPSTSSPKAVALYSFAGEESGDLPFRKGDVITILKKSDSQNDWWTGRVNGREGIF

Nbp2, Q12163 = molecular target: T15, Nbp2, Q12163; conditions: median of control spots 357
T15 sequence (Q12163 103-180, looked up): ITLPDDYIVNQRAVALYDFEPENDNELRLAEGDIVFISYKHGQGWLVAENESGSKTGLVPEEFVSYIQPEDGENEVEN

Pex13, P80667 = molecular target: T16, Pex13, P80667; conditions: median of control spots 1341
T16 sequence (P80667 295-386, looked up): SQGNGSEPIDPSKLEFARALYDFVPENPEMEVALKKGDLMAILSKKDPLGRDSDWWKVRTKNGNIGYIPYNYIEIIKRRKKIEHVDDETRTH

Cdc25, P04821 = molecular target: T17, Cdc25, P04821; conditions: median of control spots 969
T17 sequence (P04821 50-136, looked up): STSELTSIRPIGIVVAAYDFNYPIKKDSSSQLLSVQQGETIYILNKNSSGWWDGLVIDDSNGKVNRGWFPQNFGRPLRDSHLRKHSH

Bud14, P27637 = molecular target: T18, Bud14, P27637; conditions: median of control spots 956
T18 sequence (P27637 247-328, looked up): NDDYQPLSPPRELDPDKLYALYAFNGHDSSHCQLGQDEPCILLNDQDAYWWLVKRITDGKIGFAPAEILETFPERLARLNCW

Hse1, P38753 = molecular target: T19, Hse1, P38753; conditions: median of control spots 1727
T19 sequence (P38753 208-285, looked up): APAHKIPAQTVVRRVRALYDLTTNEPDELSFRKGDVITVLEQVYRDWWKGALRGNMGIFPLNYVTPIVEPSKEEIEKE

Pin3, Q06449 = molecular target: T20, Pin3, Q06449; conditions: median of control spots 2171
T20 sequence (Q06449 53-122, looked up): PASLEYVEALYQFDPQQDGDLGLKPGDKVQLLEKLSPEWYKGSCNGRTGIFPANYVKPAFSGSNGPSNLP

Myo3, P36006 = conditions: median of control spots 468
Bem1-1, P29366 = conditions: median of control spots 4282
Bem1-2, P29366 = conditions: median of control spots 4347
GST = conditions: median of control spots 978
Lsb4, P32793 = molecular target: T21, Lsb4, P32793; conditions: median of control spots 397
T21 sequence (P32793 402-468, looked up): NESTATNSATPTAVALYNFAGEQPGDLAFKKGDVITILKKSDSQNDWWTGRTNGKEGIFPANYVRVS

Sequence of Rvs167, P39743 (P39743 419-482): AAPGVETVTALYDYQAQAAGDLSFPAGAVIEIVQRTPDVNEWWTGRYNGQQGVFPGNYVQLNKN
Sequence of Bem1-2, P29366 (P29366 139-227): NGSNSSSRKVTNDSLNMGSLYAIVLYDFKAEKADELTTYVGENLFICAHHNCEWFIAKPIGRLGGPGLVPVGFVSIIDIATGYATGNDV
Sequence of Bem1-1, P29366 (P29366 55-141): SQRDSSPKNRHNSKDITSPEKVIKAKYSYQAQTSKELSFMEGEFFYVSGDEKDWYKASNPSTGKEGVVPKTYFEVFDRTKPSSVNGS
Sequence of Sho1, P40073 (P40073 287-367): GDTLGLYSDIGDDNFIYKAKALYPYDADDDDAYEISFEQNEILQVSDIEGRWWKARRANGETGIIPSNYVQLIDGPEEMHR

NQARKPFLLPATELS
SPOT intensity (Abp1, P15891): 18
SPOT intensity (Lsb1, P53281): 576
SPOT intensity (Rvs167, P39743): 0
SPOT intensity (Fus1, P11710): 0
SPOT intensity (Sla1-2, P32790): 1
SPOT intensity (Hof1, Q05080): 5
SPOT intensity (Bzz1-1, P38822): 0
SPOT intensity (Sho1, P40073): 38
SPOT intensity (Sla1-3, P32790): 2
SPOT intensity (Cyk3, Q07533): 3
SPOT intensity (Boi1, P38041): 3
SPOT intensity (Bzz1-2, P38822): 0
SPOT intensity (Bbc1, P47068): 30
SPOT intensity (Boi2, P39969): 0
SPOT intensity (Myo5, Q04439): 1
SPOT intensity (Lsb3, P43603): 0
SPOT intensity (Nbp2, Q12163): 4
SPOT intensity (Pex13, P80667): 0
SPOT intensity (Cdc25, P04821): 16
SPOT intensity (Bud14, P27637): 19
SPOT intensity (Hse1, P38753): 4
SPOT intensity (Pin3, Q06449): 4
SPOT intensity (Myo3, P36006): 1
SPOT intensity (Bem1-1, P29366): 0
SPOT intensity (Bem1-2, P29366): 1
SPOT intensity (GST): 2
SPOT intensity (Lsb4, P32793): 0

FYNRTAFQLPGDARV
SPOT intensity (Abp1, P15891): 3
SPOT intensity (Lsb1, P53281): 2060
SPOT intensity (Rvs167, P39743): 0
SPOT intensity (Fus1, P11710): 0
SPOT intensity (Sla1-2, P32790): 0
SPOT intensity (Hof1, Q05080): 0
SPOT intensity (Bzz1-1, P38822): 2
SPOT intensity (Sho1, P40073): 4
SPOT intensity (Sla1-3, P32790): 5
SPOT intensity (Cyk3, Q07533): 0
SPOT intensity (Boi1, P38041): 0
SPOT intensity (Bzz1-2, P38822): 0
SPOT intensity (Bbc1, P47068): 0
SPOT intensity (Boi2, P39969): 0
SPOT intensity (Myo5, Q04439): 1
SPOT intensity (Lsb3, P43603): 2
SPOT intensity (Nbp2, Q12163): 2
SPOT intensity (Pex13, P80667): 6
SPOT intensity (Cdc25, P04821): 0
SPOT intensity (Bud14, P27637): 4
SPOT intensity (Hse1, P38753): 2
SPOT intensity (Pin3, Q06449): 151
SPOT intensity (Myo3, P36006): 1
SPOT intensity (Bem1-1, P29366): 0
SPOT intensity (Bem1-2, P29366): 1
SPOT intensity (GST): 0
SPOT intensity (Lsb4, P32793): 0

AIPPPVPNRPGGTTN
SPOT intensity (Abp1, P15891): 7
SPOT intensity (Lsb1, P53281): 948
SPOT intensity (Rvs167, P39743): 1430
SPOT intensity (Fus1, P11710): 0
SPOT intensity (Sla1-2, P32790): 0
SPOT intensity (Hof1, Q05080): 1
SPOT intensity (Bzz1-1, P38822): 2
SPOT intensity (Sho1, P40073): 0
SPOT intensity (Sla1-3, P32790): 1
SPOT intensity (Cyk3, Q07533): 2
SPOT intensity (Boi1, P38041): 1
SPOT intensity (Bzz1-2, P38822): 0
SPOT intensity (Bbc1, P47068): 196
SPOT intensity (Boi2, P39969): 0
SPOT intensity (Myo5, Q04439): 0
SPOT intensity (Lsb3, P43603): 453
SPOT intensity (Nbp2, Q12163): 1
SPOT intensity (Pex13, P80667): 375
SPOT intensity (Cdc25, P04821): 0
SPOT intensity (Bud14, P27637): 2
SPOT intensity (Hse1, P38753): 22
SPOT intensity (Pin3, Q06449): 48
SPOT intensity (Myo3, P36006): 8
SPOT intensity (Bem1-1, P29366): 1
SPOT intensity (Bem1-2, P29366): 1
SPOT intensity (GST): 0
SPOT intensity (Lsb4, P32793): 222

SRQAIPPPVPNRPGG
SPOT intensity (Abp1, P15891): 24
SPOT intensity (Lsb1, P53281): 1590
SPOT intensity (Rvs167, P39743): 833
SPOT intensity (Fus1, P11710): 1
SPOT intensity (Sla1-2, P32790): 0
SPOT intensity (Hof1, Q05080): 1
SPOT intensity (Bzz1-1, P38822): 3
SPOT intensity (Sho1, P40073): 14
SPOT intensity (Sla1-3, P32790): 3
SPOT intensity (Cyk3, Q07533): 1
SPOT intensity (Boi1, P38041): 0
SPOT intensity (Bzz1-2, P38822): 0
SPOT intensity (Bbc1, P47068): 247
SPOT intensity (Boi2, P39969): 0
SPOT intensity (Myo5, Q04439): 21
SPOT intensity (Lsb3, P43603): 658
SPOT intensity (Nbp2, Q12163): 1
SPOT intensity (Pex13, P80667): 133
SPOT intensity (Cdc25, P04821): 0
SPOT intensity (Bud14, P27637): 0
SPOT intensity (Hse1, P38753): 22
SPOT intensity (Pin3, Q06449): 55
SPOT intensity (Myo3, P36006): 63
SPOT intensity (Bem1-1, P29366): 1
SPOT intensity (Bem1-2, P29366): 3
SPOT intensity (GST): 0
SPOT intensity (Lsb4, P32793): 373
